# Assay results: doi:10.1101/2022.11.11.516098
# Experiments:
# [1] = molecular target: T1, MLEΔG (UniProt P24785 1-1158); assay: fluorescence polarization
# [2] = molecular target: T1, MLEΔG; assay: cryo-EM
# [3] = molecular target: MLEΔGin (UniProt P24785 1-1158, E195C;S633C); assay: fluorescence polarization
binder,measurement,setting,value
SL7 (SL7mod-UUC) RNA (structured_RNA) RNA: GUGUAAAAUGUUGCUAGCAAAUAUAUAUGCUAGUAACGUUUUACGCCCUCUUUCUUUCUU,apparent K (half saturation),[1],16 nM
UUUUUUUUUU (ssRNA) [U10 RNA],binding result,[2],binds
CCUCUUUCUUUC (ssRNA) [UUC RNA (fluorescein)],IC50,[3],280 ± 19 nM
same,IC50,[1],302 ± 43 nM
